According to patent US12064464B2, “Plantaricin NC8 alpha beta markedly enhances the effects of antibiotics” (priority 2018, dated 2024):
“Also recorded” adds a separate entry of the source.

What was measured:
[1] = system: S. epidermidis RP62A biofilms; assay: Bacterial biofilm disruption; assay type: cell-based, Staphylococcus epidermidis; conditions: 1 h
Method: S. epidermidis RP62A was inoculated into 5 ml of LB broth and incubated on a shaker at 37° C. overnight. The bacterial culture was diluted 1:100 into fresh media and 100 μl of bacterial suspension per well was added in a 96-well microtiter plate and incubated statically at 37° C. for 20 h. The wells were washed three times by submerging the plate into a container with distilled water to remove unattached cells. Fresh LB media was added to each well (100 μl) followed by addition of the peptides in different concentrations. The plate was incubated statically for 1 h. Detached material in the wells were transferred to a new microtiter plate for absorbance measurements at 620 nm. The remaining attached biofilms were stained with 0.1% crystal violet for 15 min before the plate was washed four times in distilled water as mentioned above and allowed to dry at room temperature for 2 h. The crystal violet was solubilized in 30% acetic acid for 15 min and the absorbance quantified at 550 nm. Each experiment, with three replicates, was repeated three times.

[2] = system: keratinocytes infected by S. aureus; assay: IncuCyte live-cell analysis of infected keratinocytes; assay type: cell-based, human
Method: (§1) HaCaT cells were cultured overnight in a 24-well plate at a seed-count of 2×10^5 cells per well. […] Co-stimulation was performed by infection of human keratinocytes, in the presence or absence of PLNC8 αβ, for 24 h, or infection of the cells for 1 h followed by addition of different concentrations of PLNC8 αβ for 6 h. Furthermore, infection of keratinocytes, with or without PLNC8 αβ, were monitored in real-time for 72 hours using IncuCyte Live-cell Analysis System. Bacterial load was quantified by measuring the fluorescence of green fluorescent protein (GFP) and cell viability was determined by measuring the fluorescent dye Draq7 that stains nuclei of dead cells.

[3] = system: S. aureus (MSSA and MRSA); assay: Sytox Green lysis and time-kill assay; assay type: cell-based, Staphylococcus aureus
Method: The fluorescent dye Sytox® Green, which can only cross damaged membranes and fluoresce upon binding to nucleic acids, was used to study the antimicrobial activity of PLNC8 αβ on S. epidermidis, S. aureus (MSSA, MRSA) and Streptococcus spp. The bacteria were washed and resuspended in Krebs-Ringer Glucose buffer (KRG) (120 mM NaCl, 4.9 mM KCl, 1.2 mM MgSO4, 1.7 mM KH2PO4, 8.3 mM Na2HPO4, and 10 mM glucose, pH 7.3) and incubated in the presence or absence of different combinations of PLNC8 αβ in 96-well microtiter plates for 2 min. Images were captured with Olympus BX41 at 40× magnification.

[4] = system: human erythrocytes; assay: Hemolysis; assay type: cell-based; conditions: 0.5-50 μM, 1 h; listed as L-PLNC8 αβ
Method: The hemolytic activity of the peptides was investigated by collecting blood from healthy volunteers in heparinized vacutainers. The blood was centrifuged at 600×g for 5 min and the erythrocyte pellet was washed three times in PBS. The cells were then suspended in PBS and added to 96-well plates (15% erythrocyte suspension/well), containing the peptides with two-fold serial dilution. The plates were incubated for 1 h at 37° C. followed by centrifugation for 5 min at 900×g and measurement of the supernatants at 540 nm. Haemolytic activity (%) was calculated by subtracting the negative control from all values and normalization against the positive control (0.5% Triton X-100), that was set to 100%. All experiments, each in duplicate, were repeated three times.

[5] = system: HaCaT cells infected with MSSA; assay: Keratinocytes infected with MSSA: LDH, ELISA, RT-qPCR, scratch assay
Method: Human keratinocytes (HaCaT) were cultured in Dulbecco's modified Eagle medium (DMEM, Fisher Scientific, New York, USA) supplemented with 10% FBS (FBS, Invitrogen Ltd, Paisley, UK) incubated in a stable environment at 95% air, 5% CO2 and 37° C. The cells were used at passages 1-20.
as §1
ELISA was performed on supernatants retrieved from human keratinocytes that were exposed to MSSA and PLNC8 αβ. The levels of CXCL8 (Human IL-8 ELISA MAX Deluxe, Nordic Biosite, Sweden) and IL-6 (Human IL-6 ELISA MAX Deluxe, Nordic Biosite, Sweden) were quantified according to the manufacturer's instructions.

[6] = infection 1 h, then peptide 6 h

B1: PLNC8 αβ: two-peptide class IIb bacteriocin of L. plantarum NC8: PLNC8 α (SEQ ID NO 1) with PLNC8 β (SEQ ID NO 2) (peptide)
alpha: DLTTKLWSSWGYYLGKKARWNLKHPYVQF
beta: SVPTSVYTLGIKILWSAYKHRKTIEKSFNKGFYH
modifications: Lactobacillus plantarum NC8
B1 was tested, and the disruption of biofilms [1] was “efficiently disrupted the biofilms and killed the bacteria”, the “bacterial growth (GFP fluorescence) prevented and delayed” value ([2]; S. aureus MOI:0.1) was “up to 38 h” and the “time for which a single dose prevented bacterial growth and protected the cells” value ([2]; S. aureus MOI:0.1) was “up to 42 h”. For the same molecule, the “time for which a single dose prevented bacterial growth and protected the cells” value ([2]; S. aureus MOI:1) was “up to 32 h”, the “lysis and killing of S. aureus” value [3] was “dose-dependently and rapidly lysed and killed S. aureus” and the hemolytic activity [4] was “no hemolytic activity was observed; also recorded: low hemolytic activity”. For the same molecule, the “S. aureus-mediated cytotoxicity (LDH) and cell viability” value [5, 6] was “antagonized S. aureus-mediated cytotoxicity and inflammatory responses, and promoted cell viability”, the “secretion of IL-6 and CXCL8” value [5, 6] was “significantly reduced” and the “secretion of IL-6 and CXCL8” value ([5]; infection with MSSA, 24 h) was “reduced bacteria-induced secretion of IL-6 and CXCL8”. For the same molecule, the “wound healing (scratch assay)” value ([5]; infection with MSSA, 24 h) was “promoted wound healing in vitro of human keratinocytes following an infection with S. aureus”.
